Measured values published in US20080194482A1, “Selective Apac2 Receptor Peptide Agonists” (priority 2005, published 2008).
Numbered stars: 1 amine (or outer) side, 2 acyl side, 3 side chain; on linkers, the order of the positions; unused ones are H or OH. Square brackets hold non-standard residues; d marks the D form. Ends that are not written are not given here. * marks the point of attachment. Tyr(OMe) = O-methyl-tyrosine, COc1ccc(C[C@H](N[*:1])C(=O)[*:2])cc1; Orn = NCCC[C@H](N)C(=O)O; Hexanoyl = CCCCCC(=O)*; Aib = CC(C)(N)C(=O)O

Experiments:
human VPAC2 receptor [1] = target: T1, human VPAC2 receptor (human, UniProt P41587 24-438); assay: cell-based or functional assay
T1 sequence (looked up): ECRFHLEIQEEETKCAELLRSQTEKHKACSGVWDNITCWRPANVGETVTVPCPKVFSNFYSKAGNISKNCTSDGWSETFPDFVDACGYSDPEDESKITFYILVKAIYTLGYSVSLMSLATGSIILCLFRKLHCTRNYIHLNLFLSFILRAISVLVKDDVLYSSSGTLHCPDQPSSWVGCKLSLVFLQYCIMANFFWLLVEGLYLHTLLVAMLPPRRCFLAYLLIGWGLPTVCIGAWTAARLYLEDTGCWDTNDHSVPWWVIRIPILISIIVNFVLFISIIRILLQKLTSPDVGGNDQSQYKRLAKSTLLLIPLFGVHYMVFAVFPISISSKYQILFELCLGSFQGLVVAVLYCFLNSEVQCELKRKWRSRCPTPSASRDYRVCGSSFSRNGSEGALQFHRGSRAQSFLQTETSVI

human VPAC2 receptor [2] = target: T1, human VPAC2 receptor; assay: filter binding, human VPAC2 membranes, competition with 125I-VIP;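 note: assay plate incubated 1 h with shaking, then filtered, with filter-retained counts measured after adding scintillant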
Protocol: The filled plate is incubated for 1 hour with shaking.
The transfer from assay plate to filter plate is conducted. The blocking buffer is aspirated by vacuum filtration and washed two times with flush buffer. 90 μL is transferred from the assay plate to the filter plate. The 90 μL transferred from assay plate is aspirated and washed three times with 200 μL flush buffer. The plastic support is removed. It is dried for 1 hour at 60° C. 30 μL Microscint is added. The count is performed.

rat VPAC1 receptor = target: T2, rat VPAC1 receptor (rat, UniProt P30083 31-459); assay: cell-based or functional assay
T2 sequence (looked up): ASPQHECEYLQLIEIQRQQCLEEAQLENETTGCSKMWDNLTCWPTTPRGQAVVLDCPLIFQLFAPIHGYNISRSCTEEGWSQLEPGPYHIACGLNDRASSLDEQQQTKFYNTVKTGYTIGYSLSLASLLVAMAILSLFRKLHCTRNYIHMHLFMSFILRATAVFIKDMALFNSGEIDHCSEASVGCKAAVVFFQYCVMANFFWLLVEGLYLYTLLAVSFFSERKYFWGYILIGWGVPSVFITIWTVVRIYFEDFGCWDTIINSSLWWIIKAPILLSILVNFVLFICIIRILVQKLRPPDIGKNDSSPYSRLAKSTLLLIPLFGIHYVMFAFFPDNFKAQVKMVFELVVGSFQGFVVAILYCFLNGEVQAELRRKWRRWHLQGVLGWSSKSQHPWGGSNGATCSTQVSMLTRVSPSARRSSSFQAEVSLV

rat VPAC2 receptor = target: T3, rat VPAC2 receptor (rat, UniProt P35000 23-437); assay: cell-based or functional assay
T3 sequence (looked up): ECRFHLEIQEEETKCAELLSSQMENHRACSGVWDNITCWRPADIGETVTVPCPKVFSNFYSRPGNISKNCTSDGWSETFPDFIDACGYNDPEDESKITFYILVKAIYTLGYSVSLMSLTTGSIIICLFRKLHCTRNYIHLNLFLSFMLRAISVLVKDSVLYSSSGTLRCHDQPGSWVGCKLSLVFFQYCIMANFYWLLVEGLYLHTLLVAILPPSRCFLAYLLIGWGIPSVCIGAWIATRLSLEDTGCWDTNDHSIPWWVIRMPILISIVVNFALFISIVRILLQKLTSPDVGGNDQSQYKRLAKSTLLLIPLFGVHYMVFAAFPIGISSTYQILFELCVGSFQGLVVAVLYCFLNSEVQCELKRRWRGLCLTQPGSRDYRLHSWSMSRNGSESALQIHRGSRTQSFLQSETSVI

Binder | Human VPAC2 Receptor: Alpha Screen (EC50; nM), cAMP generation (human VPAC2 receptor [1]) [nM] | IC50 (human VPAC2 receptor [2]) [nM] | Rat VPAC1 Receptor: DiscoveRx (EC50; nM), cAMP generation (rat VPAC1 receptor) [nM] | Rat VPAC2 Receptor: DiscoveRx (EC50; nM), cAMP generation (rat VPAC2 receptor) [nM]
HSDAVFTDNYTXLRXQVAAXKYLQSIKNKRYGGPSSGAPPPS (N-terminal hexanoyl (C6); hR (homoarginine) at 12; Aib at 15 and 20) [VPAC2 receptor peptide agonist P343] | 0.29 | 0.85 | 2.62 | 0.15
HSDAVFTEQYTXLRXQLAAXXYLQSIXXGGPSSGAPPPS (N-terminal hexanoyl (C6); Tyr(OMe) at 10 and 22; Orn at 12, 21, 27 and 28; Aib at 15 and 20) [VPAC2 receptor peptide agonist P418] | 3.11 | 8.96 | 7.76 | 0.57
HSDAVFTDNYTXLRXQVAAXXYLQSIXXGGPSSGAPPPS (N-terminal hexanoyl (C6); Orn at 12, 21, 27 and 28; Aib at 15 and 20) [VPAC2 receptor peptide agonist P397] | 0.15 | 0.5 | – | –
HSEAVFTEQYTXLRXQLAAXXYLQSIXXGGPSSGAPPPS (N-terminal hexanoyl (C6); Tyr(OMe) at 10; Orn at 12, 21, 27 and 28; Aib at 15 and 20) [VPAC2 receptor peptide agonist P393] | 0.31 | 0.74 | 16 | 0.17
Hexanoyl-HSDAVFTDQYTR[Aib]R[Aib]QVAA[Aib]KYLQSIK[Aib]KGGPSSGAPPPS [VPAC2 receptor peptide agonist P406] | 0.12 | 0.27 | – | 0.04
Hexanoyl-HSDAVFTDQ[Tyr(OMe)]TR[Aib]R[Aib]QLAA[Aib]KYLQSIK[Aib]KGGPSSGAPPPS [VPAC2 receptor peptide agonist P408] | 0.12 | 0.48 | 0.35 | 0.04
HSDAVFTDNYTRLRXQVAAXKYLQSIKXXGGPSSGAPPPS (N-terminal hexanoyl (C6); Aib at 15, 20 and 28; Orn at 29) [VPAC2 receptor peptide agonist P357] | 0.23 | 0.32 | 0.69 | 0.07
Hexanoyl-HSDAVFTDNYT[Orn]LLAKLALQKYLQSI[Orn]N[Orn]GGPSSGAPPPS [VPAC2 receptor peptide agonist P371] | 0.13 | 0.34 | – | –
Hexanoyl-HSDAVFTDNYTQLR[Aib]QVAA[Aib]KYLQSI[Orn]N[Orn]GGPSSGAPPPS [VPAC2 receptor peptide agonist P368] | 1.09 | 28.6 | 20.9 | 1.33
Hexanoyl-HSDAVFTDNYTFLR[Aib]QVAA[Aib]KYLQSI[Orn]N[Orn]GGPSSGAPPPS [VPAC2 receptor peptide agonist P369] | 10.5 | 37.3 | 130 | 8.09
Hexanoyl-HSDAVFTDSYT[Orn]LR[Aib]QVAA[Aib]KYLQSI[Orn]N[Orn]GGPSSGAPPPS [VPAC2 receptor peptide agonist P392] | 0.21 | 0.45 | 0.71 | 0.08
